This is an account of results in publication PMC6098134.

This assay addresses recombinant basigin (CD147), immunoglobulin domains 1 and 2 of the short isoform (aa 22-205) (UniProt P35613). The assay is described as follows: SPR; basigin immobilised on a CM5 chip by amine coupling (950 RU); RH5.1 injected as a two-fold dilution series from 2 µM, 120 s at 30 µL/min, 300 s dissociation; 20 °C; 10 mM HEPES pH 7.4, 150 mM NaCl, 3 mM EDTA, 0.005% Tween-20, 2 mg/mL dextran, 1 mg/mL salmon sperm DNA; kinetic sensorgrams fitted to a global 1:1 model.
UniProt P35613, sequence (P35613 other isoform, or with tags, fused parts or gaps): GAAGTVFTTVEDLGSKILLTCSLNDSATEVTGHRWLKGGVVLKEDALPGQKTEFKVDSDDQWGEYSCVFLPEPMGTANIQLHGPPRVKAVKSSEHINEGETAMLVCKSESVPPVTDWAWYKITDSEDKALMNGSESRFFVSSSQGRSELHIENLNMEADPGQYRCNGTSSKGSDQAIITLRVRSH

In the case of “RH5.1 protein vaccine (full-length Plasmodium falciparum reticulocyte-binding protein homolog 5, PfRH5, aa E26-Q526, with C-tag) (from UniProt Q8IFM5 26-526) (natural protein)”, the equilibrium dissociation constant (Kd) was found to be 1.2 µM.
